Data: article PMC10746786 (2023)

B1: FLAG-tagged EIF4G2 WT [human] / EIF4A2 [human (endogenous in HEK293T)] (parent complex)
chain 1: MESAIAEGGASRFSASSGGGGSRGAPQHYPKTAGNSEFLGKTPGQNAQKWIPARSTRRDDNSAANNSANEKERHDAIFRKVRGILNKLTPEKFDKLCLELLNVGVESKLILKGVILLIVDKALEEPKYSSLYAQLCLRLAEDAPNFDGPAAEGQPGQKQSTTFRRLLISKLQDEFENRTRNVDVYDKRENPLLPEEEEQRAIAKIKMLGNIKFIGELGKLDLIHESILHKCIKTLLEKKKRVQLKDMGEDLECLCQIMRTVGPRLDHERAKSLMDQYFARMCSLMLSKELPARIRFLLQDTVELREHHWVPRKAFLDNGPKTINQIRQDAVKDLGVFIPAPMAQGMRSDFFLEGPFMPPRMKMDRDPLGGLADMFGQMPGSGIGTGPGVIQDRFSPTMGRHRSNQLFNGHGGHIMPPTQSQFGEMGGKFMKSQGLSQLYHNQSQGLLSQLQGQSKDMPPRFSKKGQLNADEISLRPAQSFLMNKNQVPKLQPQITMIPPSAQPPRTQTPPLGQTPQLGLKTNPPLIQEKPAKTSKKPPPSKEELLKLTETVVTEYLNSGNANEAVNGVREMRAPKHFLPEMLSKVIILSLDRSDEDKEKASSLISLLKQEGIATSDNFMQAFLNVLDQCPKLEVDIPLVKSYLAQFAARAIISELVSISELAQPLESGTHFPLFLLCLQQLAKLQDREWLTELFQQSKVNMQKMLPEIDQNKDRMLEILEGKGLSFLFPLLKLEKELLKQIKLDPSPQTIYKWIKDNISPKLHVDKGFVNILMTSFLQYISSEVNPPSDETDSSSAPSKEQLEQEKQLLLSFKPVMQKFLHDHVDLQVSALYALQVHCYNSNFPKGMLLRFFVHFYDMEIIEEEAFLAWKEDITQEFPGKGKALFQVNQWLTWLETAEEEESEEEAD
chain 2: MSGGSADYNREHGGPEGMDPDGVIESNWNEIVDNFDDMNLKESLLRGIYAYGFEKPSAIQQRAIIPCIKGYDVIAQAQSGTGKTATFAISILQQLEIEFKETQALVLAPTRELAQQIQKVILALGDYMGATCHACIGGTNVRNEMQKLQAEAPHIVVGTPGRVFDMLNRRYLSPKWIKMFVLDEADEMLSRGFKDQIYEIFQKLNTSIQVVLLSATMPTDVLEVTKKFMRDPIRILVKKEELTLEGIKQFYINVEREEWKLDTLCDLYETLTITQAVIFLNTRRKVDWLTEKMHARDFTVSALHGDMDQKERDVIMREFRSGSSRVLITTDLLARGIDVQQVSLVINYDLPTNRENYIHRIGRGGRFGRKGVAINFVTEEDKRILRDIETFYNTTVEEMPMNVADLI
B2: FLAG-tagged EIF4G2 WT [human] / PRRC2C [human (endogenous in HEK293T)] (parent complex)
chain 1: B1 chain 1
chain 2: MSEKSGQSTKAKDGKKYATLSLFNTYKGKSLETQKTTARHGLQSLGKVGISRRMPPPANLPSLKAENKGNDPNVNIVPKDGTGWASKQEQHEEEKTPEVPPAQPKPGVAAPPEVAPAPKSWASNKQGGQGDGIQVNSQFQQEFPSLQAAGDQEKKEKETNDDNYGPGPSLRPPNVACWRDGGKAAGSPSSSDQDEKLPGQDESTAGTSEQNDILKVVEKRIACGPPQAKLNGQQAALASQYRAMMPPYMFQQYPRMTYPPLHGPMRFPPSLSETNKGLRGRGPPPSWASEPERPSILSASELKELDKFDNLDAEADEGWAGAQMEVDYTEQLNFSDDDEQGSNSPKENNSEDQGSKASENNENKKETDEVSNTKSSSQIPAQPSVAKVPYGKGPSFNQERGTSSHLPPPPKLLAQQHPPPDRQAVPGRPGPFPSKQQVADEDEIWKQRRRQQSEISAAVERARKRREEEERRMEEQRKAACAEKLKRLDEKLGILEKQPSPEEIREREREKEREREKELEKEQEQEREKEREKDRERQQEKEKELEKEQEKQREMEKERKQEKEKELERQKEKEKELQKMKEQEKECELEKEREKLEEKIEPREPNLEPMVEKQESENSCNKEEEPVFTRQDSNRSEKEATPVVHETEPESGSQPRPAVLSGYFKQFQKSLPPRFQRQQEQMKQQQWQQQQQQGVLPQTVPSQPSSSTVPPPPHRPLYQPMQPHPQHLASMGFDPRWLMMQSYMDPRMMSGRPAMDIPPIHPGMIPPKPLMRRDQMEGSPNSSESFEHIARSARDHAISLSEPRMLWGSDPYPHAEPQQATTPKATEEPEDVRSEAALDQEQITAAYSVEHNQLEAHPKADFIRESSEAQVQKFLSRSVEDVRPHHTDANNQSACFEAPDQKTLSAPQEERISAVESQPSRKRSVSHGSNHTQKPDEQRSEPSAGIPKVTSRCIDSKEPIERPEEKPKKEGFIRSSEGPKPEKVYKSKSETRWGPRPSSNRREEVNDRPVRRSGPIKKPVLRDMKEEREQRKEKEGEKAEKVTEKVVVKPEKTEKKDLPPPPPPPQPPAPIQPQSVPPPIQPEAEKFPSTETATLAQKPSQDTEKPLEPVSTVQVEPAVKTVNQQTMAAPVVKEEKQPEKVISKDLVIERPRPDSRPAVKKESTLPPRTYWKEARERDWFPDQGYRGRGRGEYYSRGRSYRGSYGGRGRGGRGHTRDYPQYRDNKPRAEHIPSGPLRQREESETRSESSDFEVVPKRRRQRGSETDTDSEIHESASDKDSLSKGKLPKREERPENKKPVKPHSSFKPDNHVRIDNRLLEKPYVRDDDKAKPGFLPKGEPTRRGRGGTFRRGGRDPGGRPSRPSTLRRPAYRDNQWNPRQSEVPKPEDGEPPRRHEQFIPIAADKRPPKFERKFDPARERPRRQRPTRPPRQDKPPRFRRLREREAASKSNEVVAVPTNGTVNNVAQEPVNTLGDISGNKTPDLSNQNSSDQANEEWETASESSDFNERRERDEKKNADLNAQTVVKVGENVLPPKREIAKRSFSSQRPVDRQNRRGNNGPPKSGRNFSGPRNERRSGPPSKSGKRGPFDDQPAGTTGVDLINGSSAHHQEGVPNGTGQKNSKDSTGKKREDPKPGPKKPKEKVDALSQFDLNNYASVVIIDDHPEVTVIEDPQSNLNDDGFTEVVSKKQQKRLQDEERRKKEEQVIQVWNKKNANEKGRSQTSKLPPRFAKKQATGIQQAQSSASVPPLASAPLPPSTSASVPASTSAPLPATLTPVPASTSAPVPASTLAPVLASTSAPVPASPLAPVSASASVSASVPASTSAAAITSSSAPASAPAPTPILASVSTPASVTILASASIPILASALASTSAPTPAPAASSPAAPVITAPTIPASAPTASVPLAPASASAPAPAPTPVSAPNPAPPAPAQTQAQTHKPVQNPLQTTSQSSKQPPPSIRLPSAQTPNGTDYVASGKSIQTPQSHGTLTAELWDNKVAPPAVLNDISKKLGPISPPQPPSVSAWNKPLTSFGSAPSSEGAKNGQESGLEIGTDTIQFGAPASNGNENEVVPVLSEKSADKIPEPKEQRQKQPRAGPIKAQKLPDLSPVENKEHKPGPIGKERSLKNRKVKDAQQVEPEGQEKPSPATVRSTDPVTTKETKAVSEMSTEIGTMISVSSAEYGTNAKESVTDYTTPSSSLPNTVATNNTKMEDTLVNNVPLPNTLPLPKRETIQQSSSLTSVPPTTFSLTFKMESARKAWENSPNVREKGSPVTSTAPPIATGVSSSASGPSTANYNSFSSASMPQIPVASVTPTASLSGAGTYTTSSLSTKSTTTSDPPNICKVKPQQLQTSSLPSASHFSQLSCMPSLIAQQQQNPQVYVSQSAAAQIPAFYMDTSHLFNTQHARLAPPSLAQQQGFQPGLSQPTSVQQIPIPIYAPLQGQHQAQLSLGAGPAVSQAQELFSSSLQPYRSQPAFMQSSLSQPSVVLSGTAIHNFPTVQHQELAKAQSGLAFQQTSNTQPIPILYEHQLGQASGLGGSQLIDTHLLQARANLTQASNLYSGQVQQPGQTNFYNTAQSPSALQQVTVPLPASQLSLPNFGSTGQPLIALPQTLQPPLQHTTPQAQAQSLSRPAQVSQPFRGLIPAGTQHSMIATTGKMSEMELKAFGSGIDIKPGTPPIAGRSTTPTSSPFRATSTSPNSQSSKMNSIVYQKQFQSAPATVRMTQPFPTQFAPQILSQPNLVPPLVRAPHTNTFPAPVQRPPMALASQMPPPLTTGLMSHARLPHVARGPCGSLSGVRGNQAQAALKAEQDMKAKQRAEVLQSTQRFFSEQQQSKQIGGGKAQKVDSDSSKPPETLTDPPGVCQEKVEEKPPPAPSIATKPVRTGPIKPQAIKTEETKS
B3: FLAG-tagged EIF4G2 WT [human] / HADHB [human (endogenous in HEK293T)] (parent complex)
chain 1: B1 chain 1
chain 2: AAPAVQTKTKKTLAKPNIRNVVVVDGVRTPFLLSGTSYKDLMPHDLARAALTGLLHRTSVPKEVVDYIIFGTVIQEVKTSNVAREAALGAGFSDKTPAHTVTMACISANQAMTTGVGLIASGQCDVIVAGGVELMSDVPIRHSRKMRKLMLDLNKAKSMGQRLSLISKFRFNFLAPELPAVSEFSTSETMGHSADRLAAAFAVSRLEQDEYALRSHSLAKKAQDEGLLSDVVPFKVPGKDTVTKDNGIRPSSLEQMAKLKPAFIKPYGTVTAANSSFLTDGASAMLIMAEEKALAMGYKPKAYLRDFMYVSQDPKDQLLLGPTYATPKVLEKAGLTMNDIDAFEFHEAFSGQILANFKAMDSDWFAENYMGRKTKVGLPPLEKFNNWGGSLSLGHPFGATGCRLVMAAANRLRKEGGQYGLVAACAAGGQGHAMIVEAYPK

Variants of: B1
Test: co-immunoprecipitation followed by mass spectrometry; FLAG-tagged EIF4G2 transfected into HEK293T cells; corrected for EIF4G2 levels in IP; read off a plot

ratio to parent | Variant
~5.6 | chain 1 R178Q

Variants of: B2
Test: as above

ratio to parent | Variant
~2.4 | chain 1 R165C
~1.6 | chain 1 N785K

Variants of: B3
Test: as above

ratio to parent | Variant
~4.9 | chain 1 R178Q
